Assay results from PMC11281603.

Biological target: polymeric Ig receptor (pIgR) fused to the FLAG tag (UniProt P01833)
Conditions: parent: 1.00

Chain of UniProt P01833 (P01833 19-764): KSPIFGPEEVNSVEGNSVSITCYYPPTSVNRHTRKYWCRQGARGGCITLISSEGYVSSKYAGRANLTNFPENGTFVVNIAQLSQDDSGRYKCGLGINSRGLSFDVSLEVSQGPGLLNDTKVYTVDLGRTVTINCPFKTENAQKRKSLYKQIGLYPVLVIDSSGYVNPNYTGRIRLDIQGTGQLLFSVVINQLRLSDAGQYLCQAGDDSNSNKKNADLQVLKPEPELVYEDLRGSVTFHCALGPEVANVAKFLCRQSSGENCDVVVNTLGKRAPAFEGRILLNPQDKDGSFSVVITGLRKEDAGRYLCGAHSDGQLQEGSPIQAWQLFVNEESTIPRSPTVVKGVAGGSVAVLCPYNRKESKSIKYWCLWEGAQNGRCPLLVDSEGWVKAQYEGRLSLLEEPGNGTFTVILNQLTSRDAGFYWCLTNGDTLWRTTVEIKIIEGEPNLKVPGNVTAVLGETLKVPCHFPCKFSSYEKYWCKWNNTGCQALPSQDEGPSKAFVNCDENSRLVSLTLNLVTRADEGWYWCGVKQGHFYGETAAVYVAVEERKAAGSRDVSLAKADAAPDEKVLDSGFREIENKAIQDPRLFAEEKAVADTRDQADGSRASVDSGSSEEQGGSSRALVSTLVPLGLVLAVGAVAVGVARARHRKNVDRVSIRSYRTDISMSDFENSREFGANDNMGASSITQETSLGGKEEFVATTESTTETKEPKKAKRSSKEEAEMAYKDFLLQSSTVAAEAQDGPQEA

WT SARS-CoV-2 ORF8 fused to a C-terminal Strep-II tag (from UniProt P0DTC8) C20A
ratio to parent: 0.43

WT SARS-CoV-2 ORF8 fused to a C-terminal Strep-II tag (from UniProt P0DTC8) R115A
ratio to parent: 1
